B1: Refmab #6 (antibody, V domains shown)
VH: QVQLQQPGAEVVKPGASVKMSCKASGYTFTSYYIHWIKQTPGQGLEWVGVIYPGNDDISYNQKFQGKATLTADKSSTTAYMQLSSLTSEDSAVYYCAREVRLRYFDVWGQGTTVTVSS
VL: EIVLTQSPGSLAVSPGERVTMSCKSSQSVFFSSSQKNYLAWYQQIPGQSPRLLIYWASTRESGVPDRFTGSGSGTDFTLTISSVQPEDLAIYYCHQYLSSRTFGQGTKLEIK
notes: Full-length format is human IgG1 Fc silent (PG-LALA); also made as Fab; The alanine scan used IgG or Fab
B2: Refmab #6 (antibody, V domains shown)
VH: QVQLQQPGAEVVKPGASVKMSCKASGYTFTSYYIHWIKQTPGQGLEWVGVIYPGNDDISYNQKFQGKATLTADKSSTTAYMQLSSLTSEDSAVYYCAREVRLRYFDVWGQGTTVTVSS
VL: EIVLTQSPGSLAVSPGERVTMSCKSSQSVFFSSSQKNYLAWYQQIPGQSPRLLIYWASTRESGVPDRFTGSGSGTDFTLTISSVQPEDLAIYYCHQYLSSRTFGQGTKLEIK
notes: The alanine scan used IgG or Fab
B3: Refmab #5 (antibody, V domains shown)
VH: QVQLVQSGAEVKKPGASVKVSCKASGYTFTNYDINWVRQAPGQGLEWIGWIYPGDGSTKYNEKFKAKATLTADTSTSTAYMELRSLRSDDTAVYYCASGYEDAMDYWGQGTTVTVSS
VL: DIQMTQSPSSLSASVGDRVTINCKASQDINSYLSWFQQKPGKAPKTLIYRANRLVDGVPSRFSGSGSGQDYTLTISSLQPEDFATYYCLQYDEFPLTFGGGTKVEIK
notes: as for B1
B4: Refmab #5 (antibody, V domains shown)
VH: QVQLVQSGAEVKKPGASVKVSCKASGYTFTNYDINWVRQAPGQGLEWIGWIYPGDGSTKYNEKFKAKATLTADTSTSTAYMELRSLRSDDTAVYYCASGYEDAMDYWGQGTTVTVSS
VL: DIQMTQSPSSLSASVGDRVTINCKASQDINSYLSWFQQKPGKAPKTLIYRANRLVDGVPSRFSGSGSGQDYTLTISSLQPEDFATYYCLQYDEFPLTFGGGTKVEIK
notes: as for B2

What was measured:
Experiment in all cases: alanine scan, flow cytometry, HEK293-T;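 note: antibody binding to each alanine-substituted CD33 mutant expressed transiently in HEK293-T, read as fluorescence minus background, mean of duplicates, relative to wild-type CD33 set as 100%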
[1] = target: human CD33 K52A (human, UniProt P20138 18-364)
[2] = target: human CD33 R62A (human, UniProt P20138 18-364)
[3] = target: human CD33 A65S (human, UniProt P20138 18-364)
[4] = target: human CD33 S71A (human, UniProt P20138 18-364)
[5] = target: human CD33 V73A (human, UniProt P20138 18-364)
[6] = target: human CD33 V82A (human, UniProt P20138 18-364)
[7] = target: human CD33 R89A (human, UniProt P20138 18-364)
[8] = target: human CD33 R91A (human, UniProt P20138 18-364)
[9] = target: human CD33 N99A (human, UniProt P20138 18-364)
[10] = target: human CD33 C101A (human, UniProt P20138 18-364)
[11] = target: human CD33 S102A (human, UniProt P20138 18-364)
[12] = target: human CD33 S104A (human, UniProt P20138 18-364)
[13] = target: human CD33 I105A (human, UniProt P20138 18-364)
[14] = target: human CD33 I47A (human, UniProt P20138 18-364)
[15] = target: human CD33 N113A (human, UniProt P20138 18-364)
[16] = target: human CD33 Y116A (human, UniProt P20138 18-364)
[17] = target: human CD33 F118A (human, UniProt P20138 18-364)
[18] = target: human CD33 M120A (human, UniProt P20138 18-364)
[19] = target: T1, human CD33 P132A (human, UniProt P20138 18-364)
T1 construct: alanine scan clone, transfected HEK293-T

[20] = target: T2, human CD33 S135A (human, UniProt P20138 18-364)
T2 construct: alanine scan clone, transfected HEK293-T

[21] = target: T3, human CD33 D140A (human, UniProt P20138 18-364)
T3 construct: alanine scan clone, transfected HEK293-T

[22] = target: T4, human CD33 L141A (human, UniProt P20138 18-364)
T4 construct: alanine scan clone, transfected HEK293-T

[23] = target: T5, human CD33 T142A (human, UniProt P20138 18-364)
T5 construct: alanine scan clone, transfected HEK293-T

[24] = target: T6, human CD33 P150A (human, UniProt P20138 18-364)
T6 construct: alanine scan clone, transfected HEK293-T

[25] = target: T7, human CD33 G151A (human, UniProt P20138 18-364)
T7 construct: alanine scan clone, transfected HEK293-T

[26] = target: T8, human CD33 T152A (human, UniProt P20138 18-364)
T8 construct: alanine scan clone, transfected HEK293-T

[27] = target: T9, human CD33 E154A (human, UniProt P20138 18-364)
T9 construct: alanine scan clone, transfected HEK293-T

[28] = target: T10, human CD33 S158A (human, UniProt P20138 18-364)
T10 construct: alanine scan clone, transfected HEK293-T

[29] = target: T11, human CD33 L161A (human, UniProt P20138 18-364)
T11 construct: alanine scan clone, transfected HEK293-T

[30] = target: T12, human CD33 E121A (human, UniProt P20138 18-364)
T12 construct: alanine scan clone, transfected HEK293-T

[31] = target: T13, human CD33 Q171A (human, UniProt P20138 18-364)
T13 construct: alanine scan clone, transfected HEK293-T

[32] = target: T14, human CD33 S178A (human, UniProt P20138 18-364)
T14 construct: alanine scan clone, transfected HEK293-T

[33] = target: T15, human CD33 L180A (human, UniProt P20138 18-364)
T15 construct: alanine scan clone, transfected HEK293-T

[34] = target: T16, human CD33 S181A (human, UniProt P20138 18-364)
T16 construct: alanine scan clone, transfected HEK293-T

[35] = target: T17, human CD33 A183S (human, UniProt P20138 18-364)
T17 construct: alanine scan clone, transfected HEK293-T

[36] = target: T18, human CD33 T191A (human, UniProt P20138 18-364)
T18 construct: alanine scan clone, transfected HEK293-T
T18 sequence (P20138 18-364 T191A limits assumed): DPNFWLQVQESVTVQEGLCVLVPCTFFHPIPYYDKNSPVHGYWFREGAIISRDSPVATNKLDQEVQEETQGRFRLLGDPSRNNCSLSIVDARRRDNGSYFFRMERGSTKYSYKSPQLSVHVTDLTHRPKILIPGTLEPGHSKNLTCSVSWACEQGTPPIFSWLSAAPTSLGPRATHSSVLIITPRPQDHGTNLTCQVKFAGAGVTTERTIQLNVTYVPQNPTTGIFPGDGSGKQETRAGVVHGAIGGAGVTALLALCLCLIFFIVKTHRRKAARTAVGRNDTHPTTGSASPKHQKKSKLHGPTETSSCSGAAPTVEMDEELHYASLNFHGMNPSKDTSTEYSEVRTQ

human CD33 R91A, sequence (P20138 18-364 R91A limits assumed): as the sequence (P20138 18-364 T191A limits assumed) above, with R74A, A174T counted along it
human CD33 R62A, sequence (P20138 18-364 R62A limits assumed): as the sequence (P20138 18-364 T191A limits assumed) above, with R45A, A174T counted along it
human CD33 A65S, sequence (P20138 18-364 A65S limits assumed): as the sequence (P20138 18-364 T191A limits assumed) above, with A48S, A174T counted along it
T10 sequence (P20138 18-364 S158A limits assumed): as the sequence (P20138 18-364 T191A limits assumed) above, with S141A, A174T counted along it
human CD33 R89A, sequence (P20138 18-364 R89A limits assumed): as the sequence (P20138 18-364 T191A limits assumed) above, with R72A, A174T counted along it
T8 sequence (P20138 18-364 T152A limits assumed): as the sequence (P20138 18-364 T191A limits assumed) above, with T135A, A174T counted along it
T7 sequence (P20138 18-364 G151A limits assumed): as the sequence (P20138 18-364 T191A limits assumed) above, with G134A, A174T counted along it
human CD33 F118A, sequence (P20138 18-364 F118A limits assumed): as the sequence (P20138 18-364 T191A limits assumed) above, with F101A, A174T counted along it
T1 sequence (P20138 18-364 P132A limits assumed): as the sequence (P20138 18-364 T191A limits assumed) above, with P115A, A174T counted along it
human CD33 Y116A, sequence (P20138 18-364 Y116A limits assumed): as the sequence (P20138 18-364 T191A limits assumed) above, with Y99A, A174T counted along it
human CD33 V82A, sequence (P20138 18-364 V82A limits assumed): as the sequence (P20138 18-364 T191A limits assumed) above, with V65A, A174T counted along it
human CD33 N113A, sequence (P20138 18-364 N113A limits assumed): as the sequence (P20138 18-364 T191A limits assumed) above, with N96A, A174T counted along it
T16 sequence (P20138 18-364 S181A limits assumed): as the sequence (P20138 18-364 T191A limits assumed) above, with S164A, A174T counted along it
human CD33 M120A, sequence (P20138 18-364 M120A limits assumed): as the sequence (P20138 18-364 T191A limits assumed) above, with M103A, A174T counted along it
human CD33 S104A, sequence (P20138 18-364 S104A limits assumed): as the sequence (P20138 18-364 T191A limits assumed) above, with S87A, A174T counted along it
T5 sequence (P20138 18-364 T142A limits assumed): as the sequence (P20138 18-364 T191A limits assumed) above, with T125A, A174T counted along it
T13 sequence (P20138 18-364 Q171A limits assumed): as the sequence (P20138 18-364 T191A limits assumed) above, with Q154A, A174T counted along it
T11 sequence (P20138 18-364 L161A limits assumed): as the sequence (P20138 18-364 T191A limits assumed) above, with L144A, A174T counted along it
T9 sequence (P20138 18-364 E154A limits assumed): as the sequence (P20138 18-364 T191A limits assumed) above, with E137A, A174T counted along it
T17 sequence (P20138 18-364 A183S limits assumed): as the sequence (P20138 18-364 T191A limits assumed) above, with A166S, A174T counted along it
T4 sequence (P20138 18-364 L141A limits assumed): as the sequence (P20138 18-364 T191A limits assumed) above, with L124A, A174T counted along it
human CD33 I105A, sequence (P20138 18-364 I105A limits assumed): as the sequence (P20138 18-364 T191A limits assumed) above, with I88A, A174T counted along it
human CD33 C101A, sequence (P20138 18-364 C101A limits assumed): as the sequence (P20138 18-364 T191A limits assumed) above, with C84A, A174T counted along it
human CD33 I47A, sequence (P20138 18-364 I47A limits assumed): as the sequence (P20138 18-364 T191A limits assumed) above, with I30A, A174T counted along it
T15 sequence (P20138 18-364 L180A limits assumed): as the sequence (P20138 18-364 T191A limits assumed) above, with L163A, A174T counted along it
human CD33 K52A, sequence (P20138 18-364 K52A limits assumed): as the sequence (P20138 18-364 T191A limits assumed) above, with K35A, A174T counted along it
T12 sequence (P20138 18-364 E121A limits assumed): as the sequence (P20138 18-364 T191A limits assumed) above, with E104A, A174T counted along it
human CD33 S102A, sequence (P20138 18-364 S102A limits assumed): as the sequence (P20138 18-364 T191A limits assumed) above, with S85A, A174T counted along it
T14 sequence (P20138 18-364 S178A limits assumed): as the sequence (P20138 18-364 T191A limits assumed) above, with S161A, A174T counted along it
human CD33 V73A, sequence (P20138 18-364 V73A limits assumed): as the sequence (P20138 18-364 T191A limits assumed) above, with V56A, A174T counted along it
human CD33 N99A, sequence (P20138 18-364 N99A limits assumed): as the sequence (P20138 18-364 T191A limits assumed) above, with N82A, A174T counted along it
human CD33 S71A, sequence (P20138 18-364 S71A limits assumed): as the sequence (P20138 18-364 T191A limits assumed) above, with S54A, A174T counted along it
T3 sequence (P20138 18-364 D140A limits assumed): as the sequence (P20138 18-364 T191A limits assumed) above, with D123A, A174T counted along it
T2 sequence (P20138 18-364 S135A limits assumed): as the sequence (P20138 18-364 T191A limits assumed) above, with S118A, A174T counted along it
T6 sequence (P20138 18-364 P150A limits assumed): as the sequence (P20138 18-364 T191A limits assumed) above, with P133A, A174T counted along it

Row | Binder | Mean % WT Binding [1] [% WT binding] | Mean % WT Binding [2] [% WT binding] | Mean % WT Binding [3] [% WT binding] | Mean % WT Binding [4] [% WT binding] | Mean % WT Binding [5] [% WT binding] | Mean % WT Binding [6] [% WT binding] | Mean % WT Binding [7] [% WT binding] | Mean % WT Binding [8] [% WT binding] | Mean % WT Binding [9] [% WT binding] | Mean % WT Binding [10] [% WT binding] | Mean % WT Binding [11] [% WT binding] | Mean % WT Binding [12] [% WT binding] | Mean % WT Binding [13] [% WT binding] | Mean % WT Binding [14] [% WT binding] | Mean % WT Binding [15] [% WT binding] | Mean % WT Binding [16] [% WT binding] | Mean % WT Binding [17] [% WT binding] | Mean % WT Binding [18] [% WT binding] | Mean % WT Binding [19] [% WT binding] | Mean % WT Binding [20] [% WT binding] | further results
1 | B1 | 77 | 106 | 92.3 | 99.4 | 77.7 | 110 | 80.8 | 91.4 | 92 | 6.2 | 85.1 | 90.9 | 25.5 | 117 | 89.7 | 5 | 4.9 | 76.3 |  |  | 
2 | B2 |  |  |  |  |  |  |  |  |  |  |  |  |  |  |  |  |  |  | 3.6 | 110 | Mean % WT Binding [21]: 104 % WT binding; Mean % WT Binding [22]: 97.5 % WT binding; Mean % WT Binding [23]: 91.6 % WT binding; Mean % WT Binding [24]: 106 % WT binding; Mean % WT Binding [25]: 91.1 % WT binding; Mean % WT Binding [26]: 92.7 % WT binding; Mean % WT Binding [27]: 86.2 % WT binding; Mean % WT Binding [28]: 95.2 % WT binding; Mean % WT Binding [29]: 100 % WT binding; Mean % WT Binding [30]: 90.8 % WT binding; Mean % WT Binding [31]: 99.6 % WT binding; Mean % WT Binding [32]: 102 % WT binding; Mean % WT Binding [33]: 97.1 % WT binding; Mean % WT Binding [34]: 102 % WT binding; Mean % WT Binding [35]: 92.3 % WT binding; Mean % WT Binding [36]: 88.5 % WT binding
3 | B3 | 11.9 | 123 | 175 | 150 | 112 | 122 | 137 | 101 | 88.4 | 23 | 154 | 109 | 41.7 | 117 | 64 | 16 | 11.1 | 73.2 |  |  | 
4 | B4 |  |  |  |  |  |  |  |  |  |  |  |  |  |  |  |  |  |  | 97.3 | 108 | Mean % WT Binding [21]: 118 % WT binding; Mean % WT Binding [22]: 94.5 % WT binding; Mean % WT Binding [23]: 101 % WT binding; Mean % WT Binding [24]: 132 % WT binding; Mean % WT Binding [25]: 99.6 % WT binding; Mean % WT Binding [26]: 137 % WT binding; Mean % WT Binding [27]: 112 % WT binding; Mean % WT Binding [28]: 99.2 % WT binding; Mean % WT Binding [29]: 130 % WT binding; Mean % WT Binding [30]: 105 % WT binding; Mean % WT Binding [31]: 105 % WT binding; Mean % WT Binding [32]: 117 % WT binding; Mean % WT Binding [33]: 118 % WT binding; Mean % WT Binding [34]: 128 % WT binding; Mean % WT Binding [35]: 101 % WT binding; Mean % WT Binding [36]: 115 % WT binding
